Measurements as given in patent publication US20250230244A1 (University of Texas, published 2025).

Experiments:
B7-H3 peptide 6 [1] = target: T1, B7-H3 peptide 6 (human); assay: biolayer interferometry (Octet), epitope mapping table [panel D, row Peptide 6]
T1 peptide: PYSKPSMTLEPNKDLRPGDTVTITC
Method: (§1) The Octet RED384 System (FortdBio) was used to further characterize the chimeric and murine clones. The kinetics of the clones were tested by measuring the interaction between the antibody and its target by bio-layer interferometry technology.
(§2) The inventors generated 10 peptides from the extracellular domain of B7-H3 with a span of 25 amino acids and an overlap of 5 amino acids with each subsequent peptide.

B7-H3 peptide 2 [2] = target: T2, B7-H3 peptide 2 (human); assay: biolayer interferometry (Octet) traces, concentrations not printed [Peptide 2, column ChT-1A5]
T2 peptide: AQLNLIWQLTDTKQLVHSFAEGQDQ

B7-H3 peptide 10 = target: T3, B7-H3 peptide 10 (human); assay: biolayer interferometry (Octet), epitope mapping table [panel D, row Peptide 10]
T3 peptide: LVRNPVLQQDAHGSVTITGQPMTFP
Method: as §1, §2

B7-H3 peptide 1 [3] = target: T4, B7-H3 peptide 1 (human); assay: biolayer interferometry (Octet) traces, concentrations not printed [Peptide 1, column ChT-1A5]
T4 peptide: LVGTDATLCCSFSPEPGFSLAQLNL

B7-H3 peptide 7 = target: T5, B7-H3 peptide 7 (human); assay: biolayer interferometry (Octet), epitope mapping table [panel D, row Peptide 7]
T5 peptide: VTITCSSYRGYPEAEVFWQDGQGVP
Method: as §1, §2

B7-H3 peptide 4 [4] = target: T6, B7-H3 peptide 4 (human); assay: biolayer interferometry (Octet) traces, concentrations not printed [Peptide 4, column ChT-1A5]
T6 peptide: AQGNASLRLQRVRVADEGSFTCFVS
Method: as §1, §2

B7-H3 peptide 8 = target: T7, B7-H3 peptide 8 (human); assay: biolayer interferometry (Octet), epitope mapping table [panel D, row Peptide 8]
T7 peptide: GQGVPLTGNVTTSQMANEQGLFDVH
Method: as §1, §2

B7-H3 peptide 3 [5] = target: T8, B7-H3 peptide 3 (human); assay: biolayer interferometry (Octet) traces, concentrations not printed [Peptide 3, column ChT-1A5]
T8 peptide: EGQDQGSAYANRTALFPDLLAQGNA

B7-H3 peptide 2 [6] = target: T2, B7-H3 peptide 2; assay: biolayer interferometry (Octet) traces, concentrations not printed [Peptide 2, column T-1A5]
Method: as §1, §2

B7-H3 peptide 3 [7] = target: T8, B7-H3 peptide 3; assay: biolayer interferometry (Octet) traces, concentrations not printed [Peptide 3, column T-1A5]
B7-H3 peptide 6 [8] = target: T1, B7-H3 peptide 6; assay: biolayer interferometry (Octet) traces, concentrations not printed [continued), Peptide 6, left column]
Method: as §1, §2

B7-H3 peptide 5 [9] = target: T9, B7-H3 peptide 5 (human); assay: biolayer interferometry (Octet), number beside the raw traces [panel D, T-1A5-peptide 5]
T9 construct: Said to lie in the IgV domain spanning through the FG loop
T9 peptide: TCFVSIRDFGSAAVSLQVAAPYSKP

B7-H3 peptide 4 [10] = target: T6, B7-H3 peptide 4; assay: biolayer interferometry (Octet) traces, concentrations not printed [Peptide 4, column T-1A5]
B7-H3 peptide 5 [11] = target: T9, B7-H3 peptide 5; assay: biolayer interferometry (Octet), epitope mapping with B7-H3 peptides [panel D, row Peptide 5]
Method: as §1, §2

B7-H3 peptide 1 [12] = target: T4, B7-H3 peptide 1; assay: biolayer interferometry (Octet), epitope mapping table [panel D, row Peptide 1]
Method: as §1, §2

B1: human-mouse chimeric anti-B7-H3 antibody ChT-1A5 (antibody, human IgG1, kappa)
heavy: not shown
light: QIVLIQSPAIMSASPGEKVTMTCSASSSISYMYWYQQKPGTSPKRWIFETSKLASGVPARFSGSGSGTSYSLTISSMEAEDAATYYCHQRSSYPTFGGGTKLEIKRTVAAPSVFIFPPSDEQLKSGTASVVCLLNNFYPREAKVQWKVDNALQSGNSQESVTEQDSKDSTYSLSSTLTLSKADYEKHKVYACEVTHQGLSSPVTKSFNRGEC
notes: also called chimeric T-1A5 antibody
binding result (B7-H3 peptide 6 [1]): no binding
binding result (B7-H3 peptide 2 [2]): no binding
binding result (B7-H3 peptide 10): no binding
binding result (B7-H3 peptide 1 [3]): no binding
binding result (B7-H3 peptide 7): no binding
binding result (B7-H3 peptide 4 [4]): no binding
binding result (B7-H3 peptide 8): no binding
binding result (B7-H3 peptide 3 [5]): no binding

B2: anti-B7-H3 monoclonal antibody T-1A5 (mouse, isotype IgG1) (antibody)
heavy: QVQLQQSGAELVKPGASVKLSCKASGYTFTSYDINWVRQRPEQGLEWIGWIFPGDDTTNYNENFKGKATLTADKSSSTAYMQLTRLTSEDSAVFFCARSVGFDYWGQGTTLTVSSAKTTPPSVYPLAPGSAAQTNSMVTLGCLVKGYFPEPVTVTWNSGSLSSGVHTFPAVLQSDLYTLSSSVTVPSSTWPSETVTCNVAHPASSTKVDKKIVPRDCGCKPCICTVPEVSSVFIFPPKPKDVLTITLTPKVTCVVVDISKDDPEVQFSWFVDDVEVHTAQTQPREEQFNSTFRSVSELPIMHQDWLNGKEFKCRVNSAAFPAPIEKTISKTKGRPKAPQVYTIPPPKEQMAKDKVSLTCMITDFFPEDITVEWQWNGQPAENYKNTQPIMDTDGSYFVYSKLNVQKSNWEAGNTFTCSVLHEGLHNHHTEKSLSHSPGK
light: QIVLIQSPAIMSASPGEKVTMTCSASSSISYMYWYQQKPGTSPKRWIFETSKLASGVPARFSGSGSGTSYSLTISSMEAEDAATYYCHQRSSYPTFGGGTKLEIKRADAAPTVSIFPPSSEQLTSGGASVVCFLNNFYPKDINVKWKIDGSERQNGVLNSWTDQDSKDSTYSMSSTLTLTKDEYERHNSYTCEATHKTSTSPIVKSFNRNEC
notes: also called T-1A5A10; mAb T-1A5
binding result (B7-H3 peptide 2 [6]): no binding
binding result (B7-H3 peptide 3 [7]): no binding
binding result (B7-H3 peptide 6 [8]): no binding
binding result (B7-H3 peptide 10): no binding
binding result (B7-H3 peptide 7): no binding
Kd (B7-H3 peptide 5 [9]): 151 nM
binding result (B7-H3 peptide 8): no binding
binding result (B7-H3 peptide 4 [10]): no binding
Kd (B7-H3 peptide 5 [11]): 151 nM
binding result (B7-H3 peptide 1 [12]): no binding
